Consider seven molecules from patent US20250325630A1, “HOMODIMER FUSION PROTEINS FOR TREATING ATOPIC DERMATITIS” (Intervet Inc., priority 2021, published 2025).

Substitutions are numbered along the chain they refer to. In names and notes the source's numbering stands.

The target in assay [1] is T1, canine IL-13 (cIL-13) (Canis lupus familiaris, UniProt Q9N0W9).
T1 sequence (Q9N0W9 19-131): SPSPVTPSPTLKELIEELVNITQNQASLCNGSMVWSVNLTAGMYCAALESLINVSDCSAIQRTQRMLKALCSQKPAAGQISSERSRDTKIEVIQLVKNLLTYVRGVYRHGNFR
The assay is described as follows: Binding kinetics of cFc fusion proteins to canine IL-13 (OCTET HTX). The note with it: for ka / kdis: Table 4, cIL-13; for ka: association rate constant; for kdis: dissociation rate constant. As to the method: (§1) The binding constants for the cFc fusion proteins provided in Tables 3 and 4 below, were determined using OCTET® HTX. All kinetics measurements were performed by OCTET® HTX using SA® biosensors and DATA ACQUISITION® 12.0 software. 10 μg/mL of biotin-labeled antigen, either canine IL-4 (cIL-4) or canine IL-13 (cIL-13) were loaded onto the SAR biosensors for 120 seconds. Next, the biosensors were placed into 1×pH 7.0 TBS/Casein buffer for 60 seconds for the blocking phase. For the association phase, antigen loaded biosensors were placed into 2-fold serial dilutions from 1 μM down to 15.6 nM of the wild-type, the bispecific, or the FcRn-mutant receptor Fc-fusions that recognized the cIL-4 or cIL-13 antigen in 1×pH 7.0 TBS/Casein buffer for 30 seconds. The last well was buffer alone and that sensor was used for reference sensor subtraction. Finally, the biosensors were placed into 1×pH 7.0 TBS/Casein buffer for 120 seconds for the dissociation phase. The results were then analyzed using Data Analysis 12.0 software and the curves were fitted using a 1:1 binding model.

Assay [2] deals with T2, canine IL-4 (cIL-4) (Canis lupus familiaris, UniProt O77762).
T2 sequence (O77762 25-132): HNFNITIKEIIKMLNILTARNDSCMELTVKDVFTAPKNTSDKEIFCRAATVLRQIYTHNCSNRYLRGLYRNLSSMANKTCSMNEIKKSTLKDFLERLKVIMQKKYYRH
The assay is described as follows: Binding kinetics of cFc fusion proteins to canine IL-4 (OCTET HTX). Particulars: for ka / kdis: Table 3, cIL-4, ND = Binding Not Detected; for ka: association rate constant; for kdis: dissociation rate constant; for Kd: approximate values, read-out: binding constant (KD) with cIL-4. The protocol:
as §1

B1: cIL-13Rα2-cFc-YD: cIL-13Rα2-cIgGB-Fc with L18Y/T22D half-life substitutions, SEQ ID NO: 13 (protein)
chain: SMLSNAEIKVNPPQDFEIVDPGYLGYLSLQWQPPLFPDNFKECTIEYELKYRNIDSENWKTIITKNLHYKDGFDLNKGIEAKINTLLPAQCTNGSEVRSSWAETTYWTSPQGNRETKIQDMDCVYYNWQYLVCSWKPGMGVHFDTNYQLFYWYEGLDHSAECTDYIKVNGKNMGCRFPYLESSDYKDFYICVNGSSESQPIRPSYFIFQLQNIVKPMPPDYLSLTVKNSEEINLKWNMPKGPIPAKCFIYEIEFTEDGTTWVTTTVENEIQITRTSNESQKLCFLVRSKVNIYCSDDGIWSEWSDEQCWKGDIWKETPKRENGRVPRPPDCPKCPAPEMLGGPSVFIFPPKPKDTLYIARDPEVTCVVVDLDPEDPEVQISWFVDGKQMQTAKTQPREEQFNGTYRVVSVLPIGHQDWLKGKQFTCKVNNKALPSPIERTISKARGQAHQPSVYVLPPSREELSKNTVSLTCLIKDFFPPDIDVEWQSNGQQEPESKYRTTPPQLDEDGSYFLYSKLSVDKSRWQRGDTFICAVMHEALHNHYTQESLSHSPGK
modifications: homodimer
Take B1: in assay [1], the ka is 1.15e+06 M⁻¹ s⁻¹ and the kdis amounted to 5.07e-07 s⁻¹.

B2: cIL-13Rα2-cFc-YTE: cIL-13Rα2-cIgGB-Fc with L18Y/A20T/T22E half-life substitutions, SEQ ID NO: 10 (protein)
chain: B1 chain with A359T, D361E
modifications: homodimer
B2: in assay [1], the ka was found to be 1.17e+06 M⁻¹ s⁻¹ and the kdis was determined as 5.04e-07 s⁻¹.

B3: cIL-13Rα2-cFc: homodimer of canine IL-13Rα2 ECD, IgGB hinge region and IgGB cFc fusion protein, SEQ ID NO: 7 (protein)
chain: B1 chain with Y357L, D361T
modifications: homodimer
For B3, in assay [1], the ka is 1e+06 M⁻¹ s⁻¹ and the kdis is 7.45e-07 s⁻¹.

B4: cIL-13Rα1-cFc-YTE: cIL-13Rα1-cIgGB-Fc with L18Y/A20T/T22E half-life substitutions, SEQ ID NO: 9 (protein)
chain: GGVAAPTETQPPVTNLSVSVENLCTVIWTWDPPEGASPNCTLRYFSHFDNKQDKKIAPETHRSKEVPLNERICLQVGSQCSTNESDNPSILVEKCTPPPEGDPESAVTELQCVWHNLSYMKCTWLPGRNTSPDTNYTLYYWHSSLGKILQCEDIYREGQHIGCSFALTNLKDSSFEQHSVQIVVKDNAGKIRPSFNIVPLTSHVKPDPPHIKRLFFQNGNLYVQWKNPQNFYSRCLSYQVEVNNSQTETNDIFYVEEAKCQNSEFEGNLEGTICFMVPGVLPDTLNTVRIRVRTNKLCYEDDKLWSNWSQAMSIGENTDPTPKRENGRVPRPPDCPKCPAPEMLGGPSVFIFPPKPKDTLYITREPEVTCVVVDLDPEDPEVQISWFVDGKQMQTAKTQPREEQFNGTYRVVSVLPIGHQDWLKGKQFTCKVNNKALPSPIERTISKARGQAHQPSVYVLPPSREELSKNTVSLTCLIKDFFPPDIDVEWQSNGQQEPESKYRTTPPQLDEDGSYFLYSKLSVDKSRWQRGDTFICAVMHEALHNHYTQESLSHSPGK
modifications: homodimer
For orientation: Kd means the constant that tells how readily two partners part at equilibrium. On to B4, for which, in assay [1], the “decrease in the affinity for cIL-13 relative to unmodified cIL-13Rα1-cFc” value is given as “about 4 fold”, the ka came out at 66500 M⁻¹ s⁻¹ and the kdis worked out at 0.0011 s⁻¹. For the same molecule, in assay [1] (approximate values, read-out: binding constant (KD) with cIL-13), the dissociation constant Kd was determined as 20 nM.

B5: cIL-4Rα-cFc-H: cIL-4Rα-cIgGB-Fc with N202H half-life substitution, SEQ ID NO: 11 (protein)
chain: VKVLHEPSCFSDYISTSVCQWKMDHPTNCSAELRLSYQLDFMGSENHTCVPENREDSVCVCSMPIDDAVEADVYQLDLWAGQQLLWSGSFQPSKHVKPRTPGNLTVHPNISHTWLLMWTNPYPTENHLHSELTYMVNVSNDNDPEDFKVYNVTYMGPTLRLAASTLKSGASYSARVRAWAQTYNSTWSDWSPSTTWLNYYEPWEQHLPPKRENGRVPRPPDCPKCPAPEMLGGPSVFIFPPKPKDTLLIARTPEVTCVVVDLDPEDPEVQISWFVDGKQMQTAKTQPREEQFNGTYRVVSVLPIGHQDWLKGKQFTCKVNNKALPSPIERTISKARGQAHQPSVYVLPPSREELSKNTVSLTCLIKDFFPPDIDVEWQSNGQQEPESKYRTTPPQLDEDGSYFLYSKLSVDKSRWQRGDTFICAVMHEALHHHYTQESLSHSPGK
modifications: homodimer
Take B5: in assay [2], the “loss in affinity for cIL-4 (KD times higher) relative to unmodified cIL-4Rα-cFc homodimer” value was “about 10 fold”, the ka was found to be 785000 M⁻¹ s⁻¹, the kdis turned out to be 9.88e-05 s⁻¹ and the dissociation constant (Kd) was determined as 0.1 nM.

B6: cIL-4Rα-cFc: homodimer of canine IL-4Rα ECD, IgGB hinge region and IgGB cFc fusion protein, SEQ ID NO: 5 (protein)
chain: B5 chain with H432N
modifications: homodimer
As for B6, in assay [2], the ka turned out to be 703000 M⁻¹ s⁻¹ and the kdis was 8.3e-07 s⁻¹.

B7: cIL-4Rα-cFc-YTE: cIL-4Rα-cIgGB-Fc with L18Y/A20T/T22E half-life substitutions, SEQ ID NO: 8 (protein)
chain: B5 chain with L248Y, A250T, T252E, H432N
modifications: homodimer
B7: in assay [2], the “loss in affinity for cIL-4 (KD times higher) relative to unmodified cIL-4Rα-cFc homodimer” value is recorded as around 100 fold, the ka was found to be 830000 M⁻¹ s⁻¹, the kdis amounted to 9.23e-06 s⁻¹ and the Kd was 0.01 nM.
